For one experiment, the target named is BIMBH3 peptide. The experiment in a line: SPR; direct binding; biotinylated BIMBH3 or BAXBH3 peptide immobilised on SA sensor chip, BCL-2 (0-63 nM) as analyte; HBS-EP (10 mM hepes pH 7.4, 150 mM sodium chloride, 3.4 mM EDTA, 0.005% tween 20, optionally 1 mM TCEP for BAXBH3), 25 °C; BIAcore 4000 or S200; 1:1 binding site kinetic model; BIMBH3-4A reference surface. For orientation: Surface plasmon resonance follows binding to a sensor surface in real time, without labels.

For a further experiment, the target named is BAXBH3 peptide. The description is as above.
Another experiment deals with venetoclax. The experiment in a line: steady-state competition SPR. As to conditions: BIMBH3 peptide immobilised on chip; BCL-2 analyte pre-combined with venetoclax at 0, 20, 40, 60 nM.
The target of the next experiment is S55746. The experiment in a line: steady-state competition SPR. Conditions: BIMBH3 peptide immobilised on chip; BCL-2 analyte pre-combined with S55746 at 0, 20, 40, 60 nM.

Chain of BIMBH3 peptide (O43521 141-166): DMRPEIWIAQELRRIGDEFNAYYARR
Chain of BAXBH3 peptide (Q07812 other isoform, or with tags, fused parts or gaps): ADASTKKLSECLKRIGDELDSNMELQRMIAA

As a reminder, the Kd is the constant that tells how readily two partners part at equilibrium. A lower Kd goes with higher affinity. For “BCL-2 E152A (from UniProt P10415 1-239) (natural protein)”, the Kd with BIMBH3 peptide was 0.36 nM; with BAXBH3 peptide, 3.6 nM.

As to “BCL-2 F104C (from UniProt P10415 1-239) (natural protein)”, the values for the dissociation constant (Kd) in the experiment with BIMBH3 peptide and with BAXBH3 peptide were 0.17 nM and 4 nM, respectively.

On to “BCL-2 G101A (from UniProt P10415 1-239) (natural protein)”, for which the equilibrium dissociation constant (Kd) in the experiment with BIMBH3 peptide was determined as 0.23 nM.

Turning to “BCL-2 G101V/E152A double mutant (from UniProt P10415 1-239) (natural protein)”, the dissociation constant Kd stood at 0.63 nM in the experiment with BIMBH3 peptide and 5.5 nM with BAXBH3 peptide.

Broadly, the Ki is the dissociation constant of the complex between target and ligand, obtained from inhibition or displacement. Consider BCL-2 WT (from UniProt P10415) E152A, for which the inhibition constant (Ki) with venetoclax worked out at 0.027 nM.

Turning to BCL-2 WT (from UniProt P10415) F104C, in the experiment with venetoclax, the Ki worked out at 25.1 nM.

On to BCL-2 WT (from UniProt P10415) G101A, for which, in the experiment with venetoclax, the inhibitory constant (Ki) turned out to be 0.11 nM.

BCL-2 WT (from UniProt P10415) G101V: the inhibition constant Ki with S55746 is 36 nM.

For the substance “BCL-2 WT (from UniProt P10415) G101V; E152A”, the Ki with venetoclax amounted to 0.002 nM; with S55746, 5.3 nM.

For the origin of these results see paper PMC6547681, “Structures of BCL-2 in complex with venetoclax reveal the molecular basis of resistance mutations” (Nature Communications, 2019).
